Laboratory results published in PMC4423475, “Structure-based discovery of the first non-covalent inhibitors of Leishmania major tryparedoxin peroxidase by high throughput docking” (Scientific Reports, 2015).

Target: Tryparedoxin peroxidase I from Leishmania major (LmTXNPx) (Leishmania major)
Experiment: crystal structure; hanging drop vapor diffusion at 293 K; 12 mg/mL protein in 20 mM Tris-HCl pH 7.5 with 50 mM DTT (reduced); pentamer in the asymmetric unit, decamer from two pentamers of adjacent asymmetric units

stoichiometry N: 10
Substance: Tryparedoxin peroxidase I from Leishmania major (LmTXNPx) (enzyme)
